Assays:
Experiment in all cases: cell_activity; PAM TTTA; U2OS; with at least one of g1/g2, which one not given
Conditions in all cases: tags: V5 tag, C-terminal NLS; hairpin
ZJHK Type V-A Cas = target: T1, ZJHK Type V-A Cas (unidentified)
T1 chain: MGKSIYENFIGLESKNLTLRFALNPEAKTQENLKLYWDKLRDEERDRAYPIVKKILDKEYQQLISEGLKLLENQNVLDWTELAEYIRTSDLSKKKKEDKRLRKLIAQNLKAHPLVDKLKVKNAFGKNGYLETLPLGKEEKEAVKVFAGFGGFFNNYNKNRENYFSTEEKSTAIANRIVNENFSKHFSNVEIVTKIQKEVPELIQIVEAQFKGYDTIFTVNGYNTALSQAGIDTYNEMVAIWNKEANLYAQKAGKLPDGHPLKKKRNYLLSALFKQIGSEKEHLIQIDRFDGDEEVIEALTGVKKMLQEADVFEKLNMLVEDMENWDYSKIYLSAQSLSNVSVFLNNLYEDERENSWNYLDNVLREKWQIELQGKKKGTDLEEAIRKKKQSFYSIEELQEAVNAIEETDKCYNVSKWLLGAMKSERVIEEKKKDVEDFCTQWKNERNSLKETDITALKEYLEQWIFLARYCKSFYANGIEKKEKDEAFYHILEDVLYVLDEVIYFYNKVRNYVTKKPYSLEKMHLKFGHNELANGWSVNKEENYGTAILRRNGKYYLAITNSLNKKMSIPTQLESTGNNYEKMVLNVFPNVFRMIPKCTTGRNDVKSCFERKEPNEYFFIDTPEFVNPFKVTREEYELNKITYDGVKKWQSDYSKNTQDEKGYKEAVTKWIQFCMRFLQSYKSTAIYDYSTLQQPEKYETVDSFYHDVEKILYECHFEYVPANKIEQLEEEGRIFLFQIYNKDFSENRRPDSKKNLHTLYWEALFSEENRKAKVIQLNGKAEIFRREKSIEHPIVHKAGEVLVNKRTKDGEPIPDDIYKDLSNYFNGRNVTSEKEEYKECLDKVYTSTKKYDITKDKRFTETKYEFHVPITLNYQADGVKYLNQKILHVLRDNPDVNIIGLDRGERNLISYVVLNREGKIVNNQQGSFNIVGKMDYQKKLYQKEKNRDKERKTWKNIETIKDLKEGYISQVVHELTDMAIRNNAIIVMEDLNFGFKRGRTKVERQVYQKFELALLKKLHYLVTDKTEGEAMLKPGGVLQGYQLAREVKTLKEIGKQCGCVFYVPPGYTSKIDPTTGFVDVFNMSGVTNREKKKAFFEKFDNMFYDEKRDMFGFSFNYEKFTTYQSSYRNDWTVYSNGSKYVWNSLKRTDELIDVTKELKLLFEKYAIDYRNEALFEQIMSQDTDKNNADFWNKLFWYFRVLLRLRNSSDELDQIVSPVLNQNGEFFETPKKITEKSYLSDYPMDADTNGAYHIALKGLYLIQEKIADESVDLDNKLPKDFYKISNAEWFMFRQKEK

ZZGY Type V-A Cas = target: T2, ZZGY Type V-A Cas (unidentified)
T2 chain: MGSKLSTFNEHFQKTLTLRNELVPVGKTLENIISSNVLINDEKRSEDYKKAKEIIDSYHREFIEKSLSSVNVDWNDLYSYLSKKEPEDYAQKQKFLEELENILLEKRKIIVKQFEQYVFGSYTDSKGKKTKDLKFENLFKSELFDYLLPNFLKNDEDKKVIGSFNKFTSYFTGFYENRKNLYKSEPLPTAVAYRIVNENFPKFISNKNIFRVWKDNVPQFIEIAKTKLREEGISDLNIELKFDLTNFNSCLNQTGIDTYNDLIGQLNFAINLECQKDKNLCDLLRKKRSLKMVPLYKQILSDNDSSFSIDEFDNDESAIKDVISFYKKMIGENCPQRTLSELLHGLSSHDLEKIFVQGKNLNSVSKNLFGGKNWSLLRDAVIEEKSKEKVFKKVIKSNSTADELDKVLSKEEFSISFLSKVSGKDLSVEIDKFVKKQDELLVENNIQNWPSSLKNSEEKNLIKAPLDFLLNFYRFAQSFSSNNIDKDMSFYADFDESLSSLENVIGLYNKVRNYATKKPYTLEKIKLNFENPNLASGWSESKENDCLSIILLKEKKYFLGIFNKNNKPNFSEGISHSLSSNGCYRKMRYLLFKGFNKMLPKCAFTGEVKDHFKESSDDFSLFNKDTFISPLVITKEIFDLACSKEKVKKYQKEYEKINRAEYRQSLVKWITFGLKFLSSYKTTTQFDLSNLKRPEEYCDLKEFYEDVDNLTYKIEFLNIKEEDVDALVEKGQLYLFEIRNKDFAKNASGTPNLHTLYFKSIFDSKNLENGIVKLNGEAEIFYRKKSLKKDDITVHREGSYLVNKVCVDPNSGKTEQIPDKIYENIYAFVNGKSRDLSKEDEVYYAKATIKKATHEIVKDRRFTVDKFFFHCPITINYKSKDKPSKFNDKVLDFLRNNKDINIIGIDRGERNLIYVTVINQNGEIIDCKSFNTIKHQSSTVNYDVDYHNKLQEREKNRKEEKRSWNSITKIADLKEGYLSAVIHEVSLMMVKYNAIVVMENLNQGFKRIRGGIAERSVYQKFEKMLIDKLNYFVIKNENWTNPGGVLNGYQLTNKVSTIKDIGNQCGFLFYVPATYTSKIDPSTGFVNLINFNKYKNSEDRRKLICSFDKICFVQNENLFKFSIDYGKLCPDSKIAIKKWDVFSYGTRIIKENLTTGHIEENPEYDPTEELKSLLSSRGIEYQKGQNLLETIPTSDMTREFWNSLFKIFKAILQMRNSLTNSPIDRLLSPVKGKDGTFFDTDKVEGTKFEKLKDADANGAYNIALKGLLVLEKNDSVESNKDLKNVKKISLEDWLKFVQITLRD

ZXPB Type V-A Cas = target: T3, ZXPB Type V-A Cas (unidentified)
T3 chain: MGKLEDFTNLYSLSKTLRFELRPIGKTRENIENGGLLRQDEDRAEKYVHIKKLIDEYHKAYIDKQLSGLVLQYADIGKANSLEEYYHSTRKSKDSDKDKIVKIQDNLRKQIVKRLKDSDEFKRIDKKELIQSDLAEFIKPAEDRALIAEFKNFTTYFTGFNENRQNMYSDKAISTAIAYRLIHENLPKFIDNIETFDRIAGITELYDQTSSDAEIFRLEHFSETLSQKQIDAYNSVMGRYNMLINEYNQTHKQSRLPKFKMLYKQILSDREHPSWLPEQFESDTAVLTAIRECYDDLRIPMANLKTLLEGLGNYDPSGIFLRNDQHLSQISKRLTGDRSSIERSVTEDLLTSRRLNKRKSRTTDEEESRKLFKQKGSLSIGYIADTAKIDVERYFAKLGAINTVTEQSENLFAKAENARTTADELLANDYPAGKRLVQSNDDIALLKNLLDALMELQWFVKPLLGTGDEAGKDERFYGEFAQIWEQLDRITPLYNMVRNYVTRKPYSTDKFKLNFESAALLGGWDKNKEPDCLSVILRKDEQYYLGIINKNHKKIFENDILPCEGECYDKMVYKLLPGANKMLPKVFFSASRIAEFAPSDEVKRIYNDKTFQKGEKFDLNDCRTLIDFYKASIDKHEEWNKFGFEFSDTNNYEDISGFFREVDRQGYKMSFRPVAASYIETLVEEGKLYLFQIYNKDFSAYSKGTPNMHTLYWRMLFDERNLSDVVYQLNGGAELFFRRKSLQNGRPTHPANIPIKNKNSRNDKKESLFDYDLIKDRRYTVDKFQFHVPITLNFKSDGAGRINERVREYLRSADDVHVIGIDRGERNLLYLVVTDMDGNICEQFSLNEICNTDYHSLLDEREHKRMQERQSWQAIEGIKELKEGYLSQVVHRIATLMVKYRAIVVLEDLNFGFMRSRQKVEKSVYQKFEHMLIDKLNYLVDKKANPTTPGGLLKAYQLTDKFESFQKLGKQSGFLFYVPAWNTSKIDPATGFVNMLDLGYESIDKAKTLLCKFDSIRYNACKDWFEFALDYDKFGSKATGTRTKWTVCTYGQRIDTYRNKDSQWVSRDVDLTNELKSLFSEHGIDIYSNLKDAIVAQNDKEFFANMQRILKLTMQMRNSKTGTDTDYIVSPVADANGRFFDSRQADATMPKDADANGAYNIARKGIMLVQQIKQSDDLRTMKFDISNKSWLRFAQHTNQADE

B1: ZJHK crRNA EGFP-g1 ; EGFP-g1 target (ssRNA ; dsDNA)
RNA: CUUUGAAAGAAUAUAAUUUCUACUGAAAGUGUAGAUCGUCGCCGUCCAGCUCGACCAGG
DNA 1: TTTACGTCGCCGTCCAGCTCGACCAGG
DNA 2: CCTGGTCGAGCTGGACGGCGACGTAAA
activity (ZJHK Type V-A Cas): > 20 % EGFP KO

B2: ZZGY crRNA EGFP-g1 ; EGFP-g1 target (ssRNA ; dsDNA)
RNA: UCUAAAGCUCUUUAAGAAUUUCUACUUUCGUAGAUCGUCGCCGUCCAGCUCGACCAGG
DNA 1: TTTACGTCGCCGTCCAGCTCGACCAGG
DNA 2: CCTGGTCGAGCTGGACGGCGACGTAAA
activity (ZZGY Type V-A Cas): > 20 % EGFP KO

B3: ZXPB crRNA EGFP-g1 ; EGFP-g1 target (ssRNA ; dsDNA)
RNA: GGCUAUAAAAGCCAUAUAAUUUCUACUAUUGUAGAUCGUCGCCGUCCAGCUCGACCAGG
DNA 1: TTTACGTCGCCGTCCAGCTCGACCAGG
DNA 2: CCTGGTCGAGCTGGACGGCGACGTAAA
activity (ZXPB Type V-A Cas): > 20 % EGFP KO

Reference: patent US20250313864, “TYPE V CAS PROTEINS AND APPLICATIONS THEREOF” (Alia Therapeutics Srl, published 2025)
